# Experimental data: publication PMC6125681, “Stability of local secondary structure determines selectivity of viral RNA chaperones”
# Several values for one entry are separate records, joined by “and”; a condition that tells them apart may be missing. Equal values may be shown once.
# Columns and labels:
# [1] = target: T1, σNS (Avian reovirus (strain not given)) (UniProt W8NR44); experiment: fluorescence anisotropy
# T1 sequence: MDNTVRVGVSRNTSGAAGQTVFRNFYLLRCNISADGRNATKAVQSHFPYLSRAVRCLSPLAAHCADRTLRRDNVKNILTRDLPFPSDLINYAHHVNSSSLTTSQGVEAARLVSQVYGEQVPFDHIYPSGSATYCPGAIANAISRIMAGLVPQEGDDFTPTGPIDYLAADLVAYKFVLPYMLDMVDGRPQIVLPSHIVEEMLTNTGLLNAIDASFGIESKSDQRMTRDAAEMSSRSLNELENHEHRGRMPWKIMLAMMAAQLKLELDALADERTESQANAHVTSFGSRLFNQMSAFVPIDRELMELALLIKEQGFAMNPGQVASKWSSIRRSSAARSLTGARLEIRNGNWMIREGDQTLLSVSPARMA
# [2] = target: avian reovirus (ARV) σNS (avian reovirus); experiment: native MS; nanoESI-IMS-MS of σNS apoprotein, 20 μM, 200 mM ammonium acetate pH 7.6; no RNA
# [3] = target: avian reovirus (ARV) σNS (avian reovirus); experiment: as above; remark: listed apart in the source
# [4] = target: avian reovirus (ARV) σNS (avian reovirus); experiment: native MS; nanoESI-IMS-MS of σNS–RNP complex (σNS saturated with unstructured 20mer RNA), 20 μM, 200 mM ammonium acetate pH 7.6
# [5] = target: T2, NSP2 (Rotavirus (strain  in …, UniProt A2T3N6 1-317)); experiment: fluorescence anisotropy; no Mg2+; one value given for all three RNAs; conditions: protein: recombinant, chain copies: 8, label: 5' AlexaFluor488, hairpin
# T2 sequence: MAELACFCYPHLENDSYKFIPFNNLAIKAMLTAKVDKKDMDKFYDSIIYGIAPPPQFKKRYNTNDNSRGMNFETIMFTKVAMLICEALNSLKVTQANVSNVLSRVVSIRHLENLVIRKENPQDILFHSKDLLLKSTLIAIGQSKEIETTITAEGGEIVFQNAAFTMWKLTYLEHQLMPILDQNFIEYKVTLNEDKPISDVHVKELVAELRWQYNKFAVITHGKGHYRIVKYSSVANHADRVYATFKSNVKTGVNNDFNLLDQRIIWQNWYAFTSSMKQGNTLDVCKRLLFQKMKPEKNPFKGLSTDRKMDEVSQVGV
# [6] = target: T2, NSP2; experiment: single-pair FRET; 25 nM protein; binds folded and unfolded RNA; conditions: protein: recombinant; chain copies: 8; Methods state the reverse; hairpin, -8.9 kcal/mol
# [7] = target: T2, NSP2; experiment: FCCS; multiple RNAs per octamer; conditions: protein: recombinant; chain copies: 8; label: Cy3 or Cy5 (same string printed for both); unstructured; text calls the two labelled RNAs distinct non-complementary
# [8] = target: T2, NSP2; experiment: fluorescence anisotropy; no Mg2+; conditions: protein: recombinant; chain copies: 8; label: 5' AlexaFluor488; unstructured, MFE 0
# [9] = target: T2, NSP2; experiment: fluorescence anisotropy; 10 mM MgCl2; conditions: protein: recombinant; chain copies: 8; label: 5' AlexaFluor488; unstructured, MFE 0
molecule,measurement,setting,value
CUUCUUUCGAAAUUAAGAAG [metastable 20mer],Kd,[1],24 nM
CUUUUCAAGACAUGCAACAA [unstructured 20mer],Kd,[1],37 nM
same,binding signal (fold Kd increase vs no Mg2+),[1],1.5
UCUUUGCAAACAUGCAAAGA [stable 20mer hairpin],Kd,[1],137 nM
avian reovirus (ARV) σNS (natural protein),stoichiometry N,[2],6
same,stoichiometry N,[3],8
same,stoichiometry N,[4],8 and 6
CUUCUUUCGAAAUUAAGAAG (structured_RNA) [metastable 20mer],Kd,[5]; -3.8 kcal/mol,~20 nM
AAAUCUUUGCAAACUAUCCAAUCCAUGCAAAGAUAA (structured_RNA) [dual-labelled 36mer stem-loop],binding result,[6],binds
UUCCUUCUAUUUCUUCU (ssRNA) [17mer (S11-derived)],binding result,[7],binds
UCUUUGCAAACAUGCAAAGA (structured_RNA) [stable 20mer hairpin],Kd,[5]; -8.1 kcal/mol,~20 nM
CUUUUCAAGACAUGCAACAA (ssRNA) [unstructured 20mer],Kd,[8],20.7 ± 1.67 nM
same,Kd,[9],28 ± 1.48 nM
